Source: patent publication US20200332017A1
Where “and” joins values, the source holds several entries; their conditions need not be identical. Equal values may be shown once. Read-outs that look alike come from different tables or passages of the source.

What was measured:
[1] = molecular target: full length human CD40 (uniprot # P25942-1) on the membrane of 293T-CD40 cells (human) (UniProt P25942); assay: cell-based or functional assay
[2] = molecular target: Human CD40-his protein (Acro biosystems, Cat # CD0-H5228) (human) (UniProt P25942); assay: SPR, Biacore; human CD40-his
[3] = molecular target: full length human CD40 (uniprot # P25942-1) on the membrane of 293T-CD40 cells (human) (UniProt P25942); assay: flow cytometry on 293T-CD40 cells
[4] = molecular target: cynomolgus monkey CD40-his protein (Acro biosystems, Cat # CD0-052H6) (cynomolgus monkey) (UniProt G7PG38); assay: SPR, Biacore; cynomolgus CD40-his
[5] = molecular target: full length human CD40 (uniprot # P25942-1) on the membrane of 293T-CD40 cells (human) (UniProt P25942); assay: flow cytometry on 293T-CD40 cells; remark: listed apart in the source
[6] = molecular target: human CD40-Fc protein (amino acid residue 21-193 of SEQ ID NO: 67 linked to N-terminus of amino acid residue 99-330 of SEQ ID NO.: 24) (human); assay: capture ELISA, biotin human CD40-Fc; mAb at 16 ng/mL
[7] = molecular target: human CD40-Fc protein (amino acid residue 21-193 of SEQ ID NO: 67 linked to N-terminus of amino acid residue 99-330 of SEQ ID NO.: 24) (human); assay: capture ELISA, biotin human CD40-Fc; mAb at 80 ng/mL
[8] = molecular target: human CD40-Fc protein (amino acid residue 21-193 of SEQ ID NO: 67 linked to N-terminus of amino acid residue 99-330 of SEQ ID NO.: 24) (human); assay: capture ELISA, biotin human CD40-Fc; mAb at 3.2 ng/mL
[9] = molecular target: human CD40-Fc protein (amino acid residue 21-193 of SEQ ID NO: 67 linked to N-terminus of amino acid residue 99-330 of SEQ ID NO.: 24) (human); assay: capture ELISA, biotin human CD40-Fc; mAb at 400 ng/mL
[10] = molecular target: human CD40-Fc protein (amino acid residue 21-193 of SEQ ID NO: 67 linked to N-terminus of amino acid residue 99-330 of SEQ ID NO.: 24) (human); assay: capture ELISA, biotin human CD40-Fc; mAb at 0.64 ng/mL
[11] = molecular target: human CD40-Fc protein (amino acid residue 21-193 of SEQ ID NO: 67 linked to N-terminus of amino acid residue 99-330 of SEQ ID NO.: 24) (human); assay: capture ELISA, biotin human CD40-Fc; mAb at 2000 ng/mL
[12] = molecular target: Human CD40-his protein (Acro biosystems, Cat # CD0-H5228) (human) (UniProt P25942); assay: SPR, Biacore; antibody captured, human CD40-his flowed
[13] = molecular target: human CD40-Fc protein (amino acid residue 21-193 of SEQ ID NO: 67 linked to N-terminus of amino acid residue 99-330 of SEQ ID NO.: 24) (human); assay: capture ELISA, biotin human CD40-Fc; mAb at 10000 ng/mL
[14] = molecular target: human CD40-Fc protein (amino acid residue 21-193 of SEQ ID NO: 67 linked to N-terminus of amino acid residue 99-330 of SEQ ID NO.: 24) (human); assay: capture ELISA, biotin human CD40-Fc; mAb at 0 ng/mL (blank)
[15] = molecular target: Human CD40-his protein (Acro biosystems, Cat # CD0-H5228) (human) (UniProt P25942); assay: SPR, Biacore T200; antibody captured, antigen flowed; 1:1 Langmuir fit
[16] = molecular target: human CD40-Fc protein (amino acid residue 21-193 of SEQ ID NO: 67 linked to N-terminus of amino acid residue 99-330 of SEQ ID NO.: 24) (human); assay: capture ELISA; antibody captured, biotin-labeled human CD40-Fc in solution
[17] = molecular target: human CD40-Fc protein (amino acid residue 21-193 of SEQ ID NO: 67 linked to N-terminus of amino acid residue 99-330 of SEQ ID NO.: 24) (human); assay: as above; remark: listed apart in the source
[18] = molecular target: human CD40-Fc protein (amino acid residue 21-193 of SEQ ID NO: 67 linked to N-terminus of amino acid residue 99-330 of SEQ ID NO.: 24) (human); assay: as above; remark: listed apart in the source
[19] = molecular target: human CD40-Fc protein (amino acid residue 21-193 of SEQ ID NO: 67 linked to N-terminus of amino acid residue 99-330 of SEQ ID NO.: 24) (human); assay: as above; remark: listed apart in the source
[20] = molecular target: full length human CD40 (uniprot # P25942-1) on the membrane of 293T-CD40 cells (human) (UniProt P25942); assay: flow cytometry on 293T-CD40 cells, PE-labeled secondary antibody, MFI
[21] = molecular target: full length human CD40 (uniprot # P25942-1) on the membrane of 293T-CD40 cells (human) (UniProt P25942); assay: as above; remark: listed apart in the source
[22] = molecular target: full length human CD40 (uniprot # P25942-1) on the membrane of 293T-CD40 cells (human) (UniProt P25942); assay: as above; remark: listed apart in the source
[23] = molecular target: human CD40-Fc protein (amino acid residue 21-193 of SEQ ID NO: 67 linked to N-terminus of amino acid residue 99-330 of SEQ ID NO.: 24) (human); assay: capture ELISA (antibody captured on coated anti-IgG F(ab')2, biotin-labeled human CD40-Fc in solution, streptavidin-HRP, OD(450-630))
[24] = molecular target: human CD40-Fc protein (amino acid residue 21-193 of SEQ ID NO: 67 linked to N-terminus of amino acid residue 99-330 of SEQ ID NO.: 24) (human); assay: capture ELISA (antibody captured on coated goat anti-human IgG F(ab')2, biotin-labeled human CD40-Fc in solution, streptavidin-HRP, OD(450-630))
[25] = molecular target: human CD40-Fc protein (amino acid residue 21-193 of SEQ ID NO: 67 linked to N-terminus of amino acid residue 99-330 of SEQ ID NO.: 24) (human); assay: ligand blocking ELISA: human CD40-Fc coated, antibody titrated, then biotin-labeled human CD40L-his (blocked ligand), streptavidin-HRP, OD(450-630)
[26] = molecular target: human CD40-Fc protein (amino acid residue 21-193 of SEQ ID NO: 67 linked to N-terminus of amino acid residue 99-330 of SEQ ID NO.: 24) (human); assay: capture ELISA (antibody captured on coated anti-IgG F(ab')2, biotin-labeled human CD40-Fc in solution, streptavidin-HRP, OD(450-630)); remark: listed apart in the source

Sequence of BM1 (Dacetuzumab, Genentech Inc) (antibody) (VH): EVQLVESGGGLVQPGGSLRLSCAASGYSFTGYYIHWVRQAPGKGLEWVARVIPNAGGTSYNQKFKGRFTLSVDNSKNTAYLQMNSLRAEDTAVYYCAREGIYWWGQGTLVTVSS
Sequence of BM1 (Dacetuzumab, Genentech Inc) (antibody) (VL): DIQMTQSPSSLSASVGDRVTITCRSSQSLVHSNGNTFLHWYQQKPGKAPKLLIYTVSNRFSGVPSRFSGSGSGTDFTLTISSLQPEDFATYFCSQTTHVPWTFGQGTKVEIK
Sequence of BM2 (Selicrelumab, Abgenix) (antibody) (VH): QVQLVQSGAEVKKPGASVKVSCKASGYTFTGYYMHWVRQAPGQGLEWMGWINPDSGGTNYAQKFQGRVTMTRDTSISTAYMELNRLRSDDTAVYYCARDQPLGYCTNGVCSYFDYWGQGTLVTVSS
Sequence of BM2 (Selicrelumab, Abgenix) (antibody) (VL): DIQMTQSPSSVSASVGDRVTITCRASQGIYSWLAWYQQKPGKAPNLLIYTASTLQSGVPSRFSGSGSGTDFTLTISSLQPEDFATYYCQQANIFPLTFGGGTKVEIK
Sequence of full length human CD40 (uniprot # P25942-1) on the membrane of 293T-CD40 cells (human) (P25942 21-277 limits assumed): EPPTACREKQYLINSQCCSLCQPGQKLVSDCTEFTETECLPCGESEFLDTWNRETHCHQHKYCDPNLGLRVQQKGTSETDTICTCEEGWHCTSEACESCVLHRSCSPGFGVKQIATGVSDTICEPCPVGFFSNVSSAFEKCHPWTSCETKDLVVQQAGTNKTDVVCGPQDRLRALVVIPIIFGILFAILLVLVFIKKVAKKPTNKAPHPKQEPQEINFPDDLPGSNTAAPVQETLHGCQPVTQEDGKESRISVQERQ
Sequence of Human CD40-his protein (Acro biosystems, Cat # CD0-H5228) (human) (P25942 21-193 limits assumed): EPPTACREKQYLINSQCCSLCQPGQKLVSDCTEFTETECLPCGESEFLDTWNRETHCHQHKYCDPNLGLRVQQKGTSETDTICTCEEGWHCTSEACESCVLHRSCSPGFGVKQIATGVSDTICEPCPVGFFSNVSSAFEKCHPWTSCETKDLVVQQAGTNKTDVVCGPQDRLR
Sequence of human CD40-Fc protein (amino acid residue 21-193 of SEQ ID NO: 67 linked to N-terminus of amino acid residue 99-330 of SEQ ID NO.: 24) (human) (chain, as listed by the source): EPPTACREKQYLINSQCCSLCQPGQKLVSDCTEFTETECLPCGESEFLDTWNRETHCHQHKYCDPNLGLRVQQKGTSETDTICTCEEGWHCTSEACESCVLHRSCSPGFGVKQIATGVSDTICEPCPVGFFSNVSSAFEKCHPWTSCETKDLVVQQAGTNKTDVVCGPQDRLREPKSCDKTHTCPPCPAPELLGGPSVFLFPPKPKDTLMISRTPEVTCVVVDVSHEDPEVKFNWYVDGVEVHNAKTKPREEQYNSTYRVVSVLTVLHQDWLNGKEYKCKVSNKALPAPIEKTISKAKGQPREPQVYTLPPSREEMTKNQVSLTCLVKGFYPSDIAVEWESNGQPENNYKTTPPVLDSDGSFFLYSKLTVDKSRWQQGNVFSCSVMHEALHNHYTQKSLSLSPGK
Sequence of cynomolgus monkey CD40-his protein (Acro biosystems, Cat # CD0-052H6) (cynomolgus monkey) (G7PG38 entry or part of it limits assumed): as the sequence (P25942 21-193 limits assumed) above, with G43S, H56R, R70Q, W89L, A95S, L101P, S106L, H142R, L172Q counted along it

| Cell-based Reporter assay (EC50, nM) [1] | cell based functional assay (EC50, nM) [1] [nM] | Kd [2] [nM] | EC50 [3] | Kd [4] [nM] | EC50 [5] [nM] | absorbance at 450 nm [6] [OD450] | absorbance at 450 nm [7] [OD450] | absorbance at 450 nm [8] [OD450] | absorbance at 450 nm [9] [OD450] | absorbance at 450 nm [10] [OD450] | absorbance at 450 nm [11] [OD450] | Kd [12] [nM] | absorbance at 450 nm [13] [OD450] | absorbance at 450 nm [14] [OD450] | Kd [15] [nM] | EC50 [16] [nM] | EC50 [17] [nM] | EC50 [18] [µg/mL] | EC50 [19] [nM] | Substance | also measured |
| --- | --- | --- | --- | --- | --- | --- | --- | --- | --- | --- | --- | --- | --- | --- | --- | --- | --- | --- | --- | --- | --- |
| 4.39 nM and 4.81 nM | 4.16 | 14.1 | 0.975 nM and 0.886 nM | 5.85 | 1.3 | 0.291 | 1.02 | 0.077 | 1.83 | 0.036 | 1.87 | 26.3 | 1.99 | 0.028 | 11.1 | 0.434 | 0.33 | 0.000501 | 0.335 | BM1 (Dacetuzumab, Genentech Inc) (antibody) | EC50 (read off the curve) [20]: 0.2 µg/mL; EC50 (read off the curve) [21]: 0.8 nM; EC50 (read off the curve) [22]: 1 nM; EC50 (read off the curve) [23]: 0.4 nM; EC50 (read off the curve) [24]: 0.05 µg/mL; IC50 (read off the curve) [25]: 1 µg/mL |
| 7.01 nM and 4.9 nM | 2.89 | 12.2 | 2.01 nM and 8.58 nM | 6.03 | 2.11 | 0.178 | 0.669 | 0.052 | 1.42 | 0.028 | 1.63 | 15.4 | 1.85 | 0.029 | 5.12 | 1.25 | 0.72 | 0.000886 | 0.716 | BM2 (Selicrelumab, Abgenix) (antibody) | EC50 (read off the curve) [20]: 0.3 µg/mL; EC50 (read off the curve) [23]: 1 nM; EC50 (read off the curve) [26]: 0.1 µg/mL; EC50 (read off the curve) [24]: 0.1 µg/mL |
| – | – | – | – | – | – | 0.109 | 0.087 | 0.099 | 0.05 | 0.096 | 0.047 | – | 0.044 | 0.125 | – | – | – | – | – | Mouse IgG-NC (mouse control Ab) (antibody) | – |
| – | – | – | – | – | – | 0.03 | 0.027 | 0.025 | 0.019 | 0.026 | 0.018 | – | 0.023 | 0.026 | – | – | – | – | – | hIgG (human immunoglobulin (pH4), for intravenous injection, Hualan Biological Engineering Inc.) (antibody) | – |
